Test results reported in patent US9046524B1, “Method to quantify and measure excess colipase in a pancreatin active pharmaceutical ingredient” (Scientific Protein Laboratories, LLC, priority 2012, dated 2015).
Blank lines part the entries; values can stand above or below the molecule they belong to.

Assays:
Type in all cases: biochemical
pancreatin lipase = target: T1, pancreatin lipase (Sus scrofa, UniProt P00591); experiment: Orlistat inhibition of lipase activity on GTB substrate; conditions: 1.0 μM Lipase:Orlistat equal molar, 5 minutes on ice; USP Lipase and pancreatin samples #1, #2, #3; 1 mM Na-TDC
T1 construct: purchased USP Rockville, Md; 1494079; host or cells: also pancreatin API samples #1, #2, #3 (pancreas extract)
T1 sequence (P00591 1-450): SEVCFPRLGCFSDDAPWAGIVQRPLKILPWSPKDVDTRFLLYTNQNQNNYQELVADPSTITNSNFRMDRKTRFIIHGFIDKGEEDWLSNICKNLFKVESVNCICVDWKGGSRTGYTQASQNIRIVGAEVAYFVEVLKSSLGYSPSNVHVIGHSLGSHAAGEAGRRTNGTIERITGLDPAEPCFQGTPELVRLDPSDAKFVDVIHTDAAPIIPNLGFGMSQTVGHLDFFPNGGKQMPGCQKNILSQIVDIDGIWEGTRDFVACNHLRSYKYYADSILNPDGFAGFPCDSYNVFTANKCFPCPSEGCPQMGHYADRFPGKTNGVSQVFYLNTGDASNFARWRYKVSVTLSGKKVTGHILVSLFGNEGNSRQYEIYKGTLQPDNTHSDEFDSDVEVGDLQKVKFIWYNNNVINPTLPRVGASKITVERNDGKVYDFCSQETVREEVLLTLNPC
Description: To check the specificity of the substrate GTB, an inhibition experiment is conducted with the specific inhibitor Orlistat (Tetrahydrolipstatin, THL, Sigma #04139). […] To check the specificity of GTB substrate, bile salt below CMC concentration (1 mM Na-TDC) is chosen to obtain maximum lipase activity.
The Orlistat is dissolved in dimethyl sulfoxide (DMSO) to obtain 1.0 mg/mL stock solution. Lipase (USP) and pancreatin samples #1, #2 and #3 are mixed with Orlistat at equal molar concentrations (1.0 μM Lipase:Orlistat) and incubated for 5 minutes on ice. The assays are performed on USP Lipase and pancreatin API samples with and without Orlistat. All the samples are titrated with 0.005 M NaOH for 5 minutes in a glass mixing chamber with 30 mL of substrate mix containing 1 mM Na-TDC at 37° C. temperature and pH 7.5.

lipase [1] = target: T2, lipase (Sus scrofa, UniProt P00591); experiment: Bile salt (Na-TDC) inhibition of lipase activity against tributyrin
T2 construct: purchased USP Rockville, Md; 1494079
T2 sequence (P00591 1-450): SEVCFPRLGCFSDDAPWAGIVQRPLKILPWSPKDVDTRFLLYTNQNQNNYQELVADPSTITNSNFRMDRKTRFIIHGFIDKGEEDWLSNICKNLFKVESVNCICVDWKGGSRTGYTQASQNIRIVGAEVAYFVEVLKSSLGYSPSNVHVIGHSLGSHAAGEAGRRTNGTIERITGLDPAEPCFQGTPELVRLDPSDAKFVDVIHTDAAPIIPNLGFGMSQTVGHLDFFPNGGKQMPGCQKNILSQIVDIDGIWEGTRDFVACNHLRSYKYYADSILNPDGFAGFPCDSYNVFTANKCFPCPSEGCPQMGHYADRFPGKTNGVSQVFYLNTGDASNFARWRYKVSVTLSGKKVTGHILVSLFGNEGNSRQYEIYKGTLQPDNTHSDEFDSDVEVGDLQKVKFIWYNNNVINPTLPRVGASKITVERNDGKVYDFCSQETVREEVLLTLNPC
Description: Lipase activity against tributyrin is assayed with different concentration of TDC to determine the CMC for inhibition. The minimum TDC concentration to achieve sufficient inhibition of lipase activity is determined. Five different concentrations (1, 4, 8, 12 and 16 mM) of sodium taurodeoxy-cholate (Na-TDC) are used to determine the CMC of bile salt on two concentrations of lipase (2.5 and 5.0 μg/mL). […] As shown also in FIG. 4, increasing the concentration of bile salt above the CMC results in a progressive inhibition of lipase activity (4-16 mM Na-TDC). […] The lipase inhibition with higher concentration of bile salt (above CMC) is more consistent with the lipase at 5.0 μg/mL when compared to 2.5 μg/mL lipase (FIG. 4).

lipase [2] = target: T3, lipase (Sus scrofa, UniProt P00591); experiment: Reactivation of bile salt-inhibited lipase by added colipase
T3 construct: from tissue; host or cells: pancreatin API batches (pancreas extract)
T3 sequence (P00591 1-450): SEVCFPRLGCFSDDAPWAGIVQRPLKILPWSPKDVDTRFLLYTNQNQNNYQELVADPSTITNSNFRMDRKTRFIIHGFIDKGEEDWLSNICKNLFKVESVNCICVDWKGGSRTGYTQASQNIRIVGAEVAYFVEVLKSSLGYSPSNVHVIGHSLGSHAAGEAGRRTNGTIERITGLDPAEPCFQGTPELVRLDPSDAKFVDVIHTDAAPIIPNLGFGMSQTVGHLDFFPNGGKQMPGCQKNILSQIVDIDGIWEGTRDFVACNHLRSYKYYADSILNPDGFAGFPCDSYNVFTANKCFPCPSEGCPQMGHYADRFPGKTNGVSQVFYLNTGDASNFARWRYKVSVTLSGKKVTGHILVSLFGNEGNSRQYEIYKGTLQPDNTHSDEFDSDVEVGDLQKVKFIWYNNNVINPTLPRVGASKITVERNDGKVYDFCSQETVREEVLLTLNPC
T3 sequence (P02703 23-112 partner): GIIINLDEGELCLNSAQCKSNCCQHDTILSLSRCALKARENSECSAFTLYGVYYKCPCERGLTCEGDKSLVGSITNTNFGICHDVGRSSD
Description: In yet another embodiment, the effect of colipase on lipase activity and determination of the optimum concentration of colipase to measure the restored lipase activity is studied. The method for colipase determination is based on the principle that lipase inactivated by bile salt is reactivated by colipase (FIG. 1). FIG. 4 supports the theory of reactivation of lipase with the addition of exogenous colipase. As such, different concentrations of bile salt (0, 4, 8, 12 and 16 mM) are tested in the presence of 5.0 μg of lipase per reaction to measure the lipase activity. To each reaction beaker, a different amount of colipase (2.5, 5.0 and 10 μg) is added to the assay mixture prior to the lipase.
However, by adding different concentration of exogenous colipase (Sigma Cat #C3028), lipase activity is restored. In FIG. 5, 2.5 μg colipase, 5.0 μg colipase, and 10.0 μg colipase bars with 4, 8, 12 and 16 mM Na-TDC represent the lipase activity due to reactivation of lipase from addition of exogenous colipase. The presence of colipase at higher concentration will inhibit lypolysis. […] Although the main function of colipase is to restore the activity of the bile salt-inhibited lipase, colipase also has been reported to affect the activity of lipase in absence of bile salts by stabilizing lipase and decreasing its rate of inactivation in the presence of substrate (see Borgstrom and Brockman, 1984). […] Results reveal the most favorable amount of colipase to recover the inhibited lipase is 2.5 μg per assay with 4 mM Na-TDC.
In still another embodiment, a separate study is performed with differing amounts of lipase (2.5, 5.0 and 10 μg per reaction) to determine the maximum recovery of lipase activity in the presence of 4 mM Na-TDC and 2.5 μg added colipase. The colipase content of the sample is determined as a difference between two titration values, the blank with lipase and the test with lipase plus added colipase (test values−blank values). The accuracy of the determination is dependent on the relative proportion between lipase and colipase.
The activity in the absence of added colipase increases with increase in lipase amount, due to presence of endogenous colipase. Further, the lipase activity increases by adding exogenous colipase.

Molecule: CCCCCCCCCCC[C@@H](C[C@@H]1OC(=O)[C@H]1CCCCCC)OC(=O)[C@H](CC(C)C)NC=O [Orlistat]
- inhibition of lipase activity (pancreatin lipase): 90%

- effect on lipase activity below CMC (lipase [1]; 1 mM Na-TDC compared to 0 mM): enhancement in lipase activity
Molecule: C[C@H](CCC(=O)NCCS(=O)(=O)[O-])[C@H]1CC[C@H]2[C@@H]3CC[C@@H]4C[C@H](O)CC[C@]4(C)[C@H]3C[C@H](O)[C@]12C.O.[Na+] [Na-TDC, sodium taurodeoxycholate hydrate]
- effect on lipase activity above the CMC (lipase [1]; 4, 8, 12 & 16 mM Na-TDC, lipase 2.5 and 5.0 μg/mL): almost complete inhibition of lipase activity

B1: colipase: Colipase Standard: Sigma Colipase from porcine pancreas Cat #C3028 (protein, UniProt P02703 23-112, looked up)
Colipase: GIIINLDEGELCLNSAQCKSNCCQHDTILSLSRCALKARENSECSAFTLYGVYYKCPCERGLTCEGDKSLVGSITNTNFGICHDVGRSSD
- restored lipase activity (lipase [2]; 2.5 μg colipase, 4 mM Na-TDC, 10.0 μg lipase): 0.23 fold
- increase in restored lipase activity (lipase [2]; 2.5 μg colipase, 4 mM Na-TDC, 2.5 and 5.0 μg of lipase): two-fold
- increase in lipase activity by addition of colipase (lipase [2]; 2.5 μg colipase, without bile salt, 5.0 μg lipase): about 1.5 fold
- restored lipase activity with 5 and 10 μg colipase, fold lower than with 2.5 μg colipase (lipase [2]; 16 mM TDC): 4 fold
